We go through four molecules from patent CN117551199A (HANGZHOU RONGGU BIOTECHNOLOGY CO LTD, dated 2024).

The labels stand for the following.
T1: CLDN18.2 (Claudin18.2) expressed on cells (UniProt P56856-2 1-261)
T1 construct: whole, on cells; also called K562-CLDN18.2
T1 sequence (looked up): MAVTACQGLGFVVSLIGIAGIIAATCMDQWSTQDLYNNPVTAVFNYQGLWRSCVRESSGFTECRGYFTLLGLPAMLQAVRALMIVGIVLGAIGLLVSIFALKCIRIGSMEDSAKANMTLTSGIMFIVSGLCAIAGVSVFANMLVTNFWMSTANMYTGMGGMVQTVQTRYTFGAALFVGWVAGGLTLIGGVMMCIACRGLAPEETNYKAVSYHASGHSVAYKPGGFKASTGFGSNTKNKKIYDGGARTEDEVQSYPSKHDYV

B1: Claudin18.2纳米抗体 11C (VHH)
VHH: DVQLQESGGGSVQAGGSLRLSCAASGAIYMRNYMAWFRQVPGKEREGVAGISASSGRTYYDDSVKGRFTISQDNAKNTVYLQMNSLKPEDTAMYFCAADPFQVMIDTMRYWGQGTQVTVSS
notes: Bactrian camel VHH, made in a cell-free system and purified on His beads; detected through a Myc tag; also called Claudin18.2nb; not shown: N-terminal tag of the cell-free construct (8His-GSG and vector-derived residues, known only from primer DNA); amino acid; C-terminal Myc tag (detected with anti-Myc-Tag 9B11)
B2: Claudin18.2纳米抗体 2F (VHH)
VHH: QVQLVESGGGSVQAGGSLRLSCAGSGYVYPYYCMGWFRQAPGKERERVASIDRAGSQSYADSVKGRFTISKDNAKNTLYLQMGSLEPEDTAMYYCATDLGDGLWYSGCGTYRYWGQGTQVTVSS
notes: as for B1
B3: Claudin18.2纳米抗体 12B (VHH)
VHH: EVQLVESGGGSVQAGGSLRLSCAVSGYTYNLKYMGWFRQAPGKEREPVAFIYLGGDNQYYAPSVKDRFTISQDNAKNTVYLQMNSLKPDDTAMYYCAATTALLFLAQTSSWNYWGQGTQVTVSS
notes: Bactrian camel VHH, made in a cell-free system and purified on His beads; detected through a Myc tag; also called Claudin18.2nb; not shown: N-terminal tag of the cell-free construct (8His-GSG and vector-derived residues, known only from primer DNA); amino acid; C-terminal Myc tag (detected with anti-Myc antibody)
B4: Claudin18.2纳米抗体 10B (VHH)
VHH: EVQLVESGGGSVQAGGSLRLSCAASEQTYNRYCMGWFRQAPGKEREGVADINWRGIPNYSDSVKGRFTISQDHAKNTLYLQMNSLKPEDTAMYYCAARRGLPVVGCYDEYNIWGQGTQVTVSS
notes: as for B1

The assay concerns the target T1, CLDN18.2 (Claudin18.2) expressed on …. As to the kind of experiment: flow cytometry on K562-CLDN18.2 cells, anti-Myc-Tag detection. Background: A flow cytometer gives signals particle by particle.
As for B1, the binding result is “binds”.
Turning to B2, the binding result is “binds”.
For B3, the binding result is recorded as “binds”.
For B4, the binding result was “binds”.
